Laboratory results reported in IntAct's records for PubMed 28698298.

B1: Eukaryotic translation initiation factor 4E type 2 (Homo sapiens), O60573-1 (parent)
chain: MNNKFDALKDDDSGDHDQNEENSTQKDGEKEKTERDKNQSSSKRKAVVPGPAEHPLQYNYTFWYSRRTPGRPTSSQSYEQNIKQIGTFASVEQFWRFYSHMVRPGDLTGHSDFHLFKEGIKPMWEDDANKNGGKWIIRLRKGLASRCWENLILAMLGEQFMVGEEICGAVVSVRFQEDIISIWNKTASDQATTARIRDTLRRVLNLPPNTIMEYKTHTDSIKMPGRLGPQRLLFQNLWKPRLNVP
partner: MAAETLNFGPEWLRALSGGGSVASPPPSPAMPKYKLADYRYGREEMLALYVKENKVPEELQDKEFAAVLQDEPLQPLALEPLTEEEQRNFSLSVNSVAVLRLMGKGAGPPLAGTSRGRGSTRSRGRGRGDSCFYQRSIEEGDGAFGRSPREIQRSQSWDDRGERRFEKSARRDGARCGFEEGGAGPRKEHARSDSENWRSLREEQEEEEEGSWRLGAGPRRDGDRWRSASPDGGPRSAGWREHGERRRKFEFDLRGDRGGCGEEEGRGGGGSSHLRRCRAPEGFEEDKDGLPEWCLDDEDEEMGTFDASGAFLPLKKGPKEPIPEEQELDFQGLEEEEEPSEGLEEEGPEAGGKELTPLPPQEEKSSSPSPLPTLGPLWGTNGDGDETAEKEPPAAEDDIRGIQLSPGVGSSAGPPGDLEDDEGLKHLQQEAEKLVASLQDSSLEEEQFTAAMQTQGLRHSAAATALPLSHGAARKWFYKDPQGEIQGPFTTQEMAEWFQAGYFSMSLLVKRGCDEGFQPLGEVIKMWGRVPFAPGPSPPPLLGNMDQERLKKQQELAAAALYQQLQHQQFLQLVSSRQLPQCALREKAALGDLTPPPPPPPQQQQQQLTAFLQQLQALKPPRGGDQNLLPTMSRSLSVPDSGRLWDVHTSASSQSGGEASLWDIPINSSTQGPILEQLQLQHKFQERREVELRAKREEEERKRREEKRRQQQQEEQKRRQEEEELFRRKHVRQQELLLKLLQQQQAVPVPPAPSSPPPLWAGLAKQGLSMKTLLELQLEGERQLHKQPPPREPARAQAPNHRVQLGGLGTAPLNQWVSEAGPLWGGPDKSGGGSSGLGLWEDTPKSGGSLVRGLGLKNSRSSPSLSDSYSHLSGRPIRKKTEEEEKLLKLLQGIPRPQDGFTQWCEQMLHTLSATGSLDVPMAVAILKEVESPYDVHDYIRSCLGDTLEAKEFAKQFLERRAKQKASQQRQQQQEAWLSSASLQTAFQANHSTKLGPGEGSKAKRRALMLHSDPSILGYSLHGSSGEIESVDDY
B2: GRB10-interacting GYF protein 1 (Homo sapiens), O75420 (parent)
chain: B1 partner
B3: GRB10-interacting GYF protein 2 (Homo sapiens), Q6Y7W6 (parent)
chain: MAAETQTLNFGPEWLRALSSGGSITSPPLSPALPKYKLADYRYGREEMLALFLKDNKIPSDLLDKEFLPILQEEPLPPLALVPFTEEEQRNFSMSVNSAAVLRLTGRGGGGTVVGAPRGRSSSRGRGRGRGECGFYQRSFDEVEGVFGRGGGREMHRSQSWEERGDRRFEKPGRKDVGRPNFEEGGPTSVGRKHEFIRSESENWRIFREEQNGEDEDGGWRLAGSRRDGERWRPHSPDGPRSAGWREHMERRRRFEFDFRDRDDERGYRRVRSGSGSIDDDRDSLPEWCLEDAEEEMGTFDSSGAFLSLKKVQKEPIPEEQEMDFRPVDEGEECSDSEGSHNEEAKEPDKTNKKEGEKTDRVGVEASEETPQTSSSSARPGTPSDHQSQEASQFERKDEPKTEQTEKAEEETRMENSLPAKVPSRGDEMVADVQQPLSQIPSDTASPLLILPPPVPNPSPTLRPVETPVVGAPGMGSVSTEPDDEEGLKHLEQQAEKMVAYLQDSALDDERLASKLQEHRAKGVSIPLMHEAMQKWYYKDPQGEIQGPFNNQEMAEWFQAGYFTMSLLVKRACDESFQPLGDIMKMWGRVPFSPGPAPPPHMGELDQERLTRQQELTALYQMQHLQYQQFLIQQQYAQVLAQQQKAALSSQQQQQLALLLQQFQTLKMRISDQNIIPSVTRSVSVPDTGSIWELQPTASQPTVWEGGSVWDLPLDTTTPGPALEQLQQLEKAKAAKLEQERREAEMRAKREEEERKRQEELRRQQEEILRRQQEEERKRREEEELARRKQEEALRRQREQEIALRRQREEEERQQQEEALRRLEERRREEEERRKQEELLRKQEEEAAKWAREEEEAQRRLEENRLRMEEEAARLRHEEEERKRKELEVQRQKELMRQRQQQQEALRRLQQQQQQQQLAQMKLPSSSTWGQQSNTTACQSQATLSLAEIQKLEEERERQLREEQRRQQRELMKALQQQQQQQQQKLSGWGNVSKPSGTTKSLLEIQQEEARQMQKQQQQQQQHQQPNRARNNTHSNLHTSIGNSVWGSINTGPPNQWASDLVSSIWSNADTKNSNMGFWDDAVKEVGPRNSTNKNKNNASLSKSVGVSNRQNKKVEEEEKLLKLFQGVNKAQDGFTQWCEQMLHALNTANNLDVPTFVSFLKEVESPYEVHDYIRAYLGDTSEAKEFAKQFLERRAKQKANQQRQQQQLPQQQQQQPPQQPPQQPQQQDSVWGMNHSTLHSVFQTNQSNNQQSNFEAVQSGKKKKKQKMVRADPSLLGFSVNASSERLNMGEIETLDDY
B4: Eukaryotic translation initiation factor 4E type 2 (Homo sapiens), O60573-1 (parent)
chain: B1 chain
B5: Eukaryotic translation initiation factor 4E type 2 (Homo sapiens), O60573-1 (parent)
chain: B1 chain
partner: B3 chain

Variants of: B1
Details: with ggyf1_human GIGYF1, O75420

| Variant | effect of a mutation on the interaction |
| --- | --- |
| W95A | disrupting interaction strength |
| I85A;M101A | decreasing interaction strength |
| I85A;W95A;M101A | disrupting interaction strength |

Variants of: B1
Details: with ggyf1_human GIGYF1, O75420
Remark: another data set of the same source

| Variant | effect of a mutation on the interaction |
| --- | --- |
| W95A | with no effect |
| I85A;M101A | with no effect |

Variants of: B1
Details: with ggyf1_human GIGYF1, O75420
Remark: another data set of the same source

| Variant | effect of a mutation on the interaction |
| --- | --- |
| Q159S;M161D;R202E | with no effect |

Variants of: B2
Details: with EIF4E2, O60573-1

| Variant | effect of a mutation on the interaction |
| --- | --- |
| Y39A;Y41A;M46A;L47A | disrupting interaction strength |

Variants of: B2
Details: with EIF4E2, O60573-1
Remark: another data set of the same source

| Variant | effect of a mutation on the interaction |
| --- | --- |
| E44F;E45A;Q87A | with no effect |

Variants of: B2
Details: with EIF4E2, O60573-1
Remark: another data set of the same source

| Variant | effect of a mutation on the interaction |
| --- | --- |
| L60D;F65D;V68D;P76D;L77A | disrupting interaction strength |
| L60D;F65D;V68D;E86A;N95F | disrupting interaction strength |
| E86A;N95F | with no effect |
| L60D;F65A;V68D | with no effect |

Variants of: B2
Details: with EIF4E2, O60573-1
Remark: another data set of the same source

| Variant | effect of a mutation on the interaction |
| --- | --- |
| E44A;E45F;Q87A | with no effect |

Variants of: B3
Details: with EIF4E2, O60573-1

| Variant | effect of a mutation on the interaction |
| --- | --- |
| Y41A;Y43A;M48A;L49A | disrupting interaction strength |

Variants of: B3
Details: with EIF4E2, O60573-1
Remark: another data set of the same source

| Variant | effect of a mutation on the interaction |
| --- | --- |
| E46A;E47F;Q89A | with no effect |

Variants of: B3
Details: with EIF4E2, O60573-1
Remark: another data set of the same source

| Variant | effect of a mutation on the interaction |
| --- | --- |
| E46A;E47F;Q89A | with no effect |

Variants of: B4
Details: with 4ebp1_human EIF4EBP1, Q13541
Sequence of 4ebp1_human EIF4EBP1, Q13541 (Q13541 whole entry): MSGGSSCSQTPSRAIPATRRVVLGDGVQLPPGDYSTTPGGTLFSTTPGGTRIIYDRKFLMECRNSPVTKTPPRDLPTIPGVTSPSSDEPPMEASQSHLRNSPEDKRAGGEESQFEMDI

| Variant | effect of a mutation on the interaction |
| --- | --- |
| W95A | disrupting interaction strength |
| I85A;M101A | disrupting interaction strength |

Variants of: B4
Details: with 4ebp1_human EIF4EBP1, Q13541
Remark: another data set of the same source

| Variant | effect of a mutation on the interaction |
| --- | --- |
| S99N | increasing interaction strength |

Variants of: B5
Details: with GIGYF2, Q6Y7W6-1

| Variant | effect of a mutation on the interaction |
| --- | --- |
| I85A;M101A | with no effect |
| W95A | with no effect |

Variants of: B5
Details: with GIGYF2, Q6Y7W6-1
Remark: another data set of the same source

| Variant | effect of a mutation on the interaction |
| --- | --- |
| I85A;M101A | decreasing interaction strength |
| W95A | decreasing interaction strength |

Variants of: B5
Details: with ggyf2_human GIGYF2, Q6Y7W6

| Variant | effect of a mutation on the interaction |
| --- | --- |
| I85A;M101A | decreasing interaction strength |
| W95A | disrupting interaction strength |
| R103L;E149L | disrupting interaction strength |

Variants of: B5
Details: with GIGYF2, Q6Y7W6-1
Remark: another data set of the same source

| Variant | effect of a mutation on the interaction |
| --- | --- |
| Q159S;M161D;R202E | with no effect |
